From patent USRE50178 (CELLTECH R AND D, dated 2024) come the findings set out here.

For this assay, the target named is T1, CD3 antigen (human, UniProt P07766 23-207).
T1 construct: whole, on cells; also called OKT3 antigen; antigen in the T-cell receptor-CD3 complex
Description: competition with Fl-OKT3 on HPB-ALL cells, flow cytometry. (Flow cytometry measures light scatter and fluorescence of single cells or particles in a stream.)

B1: OKT3 gL221 / gH341 (JA178), basic grafted product (antibody, human IgG4, V domains shown)
VH: QVQLVESGGGVVQPGRSLRLSCSSSGYTFTRYTMHWVRQAPGKGLEWVAYINPSRGYTNYNQKFKDRFTISRDNSKNTLFLQMDSLRPEDTGVYFCARYYDDHYCLDYWGQGTTLTVSS
VL: DIQMTQSPSSLSASVGDRVTITCSASSSVSYMNWYQQTPGKAPKLLIYDTSKLASGVPSRFSGSGSGTDYTFTISSLQPEDIATYYCQQWSSNPFTFGQGTKLQITR
notes: Human IgG4 and human kappa constant regions; also called minimally grafted OKT3 antibody
In the case of B1, the binding result is “no binding”.
